Laboratory results from patent US20230059690A1 (published 2023).

T1: cynomolgus monkey PSMA (cynomolgus monkey, UniProt A0A2K5VNZ0 44-750)
T1 chain: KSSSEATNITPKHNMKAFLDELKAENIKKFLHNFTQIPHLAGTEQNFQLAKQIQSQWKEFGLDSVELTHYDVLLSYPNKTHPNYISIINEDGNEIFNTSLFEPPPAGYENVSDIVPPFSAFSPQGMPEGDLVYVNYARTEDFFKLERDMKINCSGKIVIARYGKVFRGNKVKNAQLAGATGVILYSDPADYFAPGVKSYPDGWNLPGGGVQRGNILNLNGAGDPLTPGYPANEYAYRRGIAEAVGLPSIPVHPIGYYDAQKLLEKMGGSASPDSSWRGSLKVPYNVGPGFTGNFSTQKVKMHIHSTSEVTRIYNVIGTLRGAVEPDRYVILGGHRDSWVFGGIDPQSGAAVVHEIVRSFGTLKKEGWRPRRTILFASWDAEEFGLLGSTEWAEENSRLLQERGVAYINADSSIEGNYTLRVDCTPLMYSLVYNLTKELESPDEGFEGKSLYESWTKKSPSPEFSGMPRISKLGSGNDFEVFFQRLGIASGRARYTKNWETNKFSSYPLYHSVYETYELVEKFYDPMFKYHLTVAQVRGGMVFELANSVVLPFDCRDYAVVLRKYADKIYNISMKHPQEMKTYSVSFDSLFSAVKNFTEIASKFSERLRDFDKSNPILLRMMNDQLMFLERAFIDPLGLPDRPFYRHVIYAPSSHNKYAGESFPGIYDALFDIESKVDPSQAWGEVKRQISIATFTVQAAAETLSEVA


Key:
[1] = molecular target: T2, human PSMA (human, UniProt Q04609 44-750); test: FACS; CHO-human PSMA cells
T2 sequence (Q04609 44-750): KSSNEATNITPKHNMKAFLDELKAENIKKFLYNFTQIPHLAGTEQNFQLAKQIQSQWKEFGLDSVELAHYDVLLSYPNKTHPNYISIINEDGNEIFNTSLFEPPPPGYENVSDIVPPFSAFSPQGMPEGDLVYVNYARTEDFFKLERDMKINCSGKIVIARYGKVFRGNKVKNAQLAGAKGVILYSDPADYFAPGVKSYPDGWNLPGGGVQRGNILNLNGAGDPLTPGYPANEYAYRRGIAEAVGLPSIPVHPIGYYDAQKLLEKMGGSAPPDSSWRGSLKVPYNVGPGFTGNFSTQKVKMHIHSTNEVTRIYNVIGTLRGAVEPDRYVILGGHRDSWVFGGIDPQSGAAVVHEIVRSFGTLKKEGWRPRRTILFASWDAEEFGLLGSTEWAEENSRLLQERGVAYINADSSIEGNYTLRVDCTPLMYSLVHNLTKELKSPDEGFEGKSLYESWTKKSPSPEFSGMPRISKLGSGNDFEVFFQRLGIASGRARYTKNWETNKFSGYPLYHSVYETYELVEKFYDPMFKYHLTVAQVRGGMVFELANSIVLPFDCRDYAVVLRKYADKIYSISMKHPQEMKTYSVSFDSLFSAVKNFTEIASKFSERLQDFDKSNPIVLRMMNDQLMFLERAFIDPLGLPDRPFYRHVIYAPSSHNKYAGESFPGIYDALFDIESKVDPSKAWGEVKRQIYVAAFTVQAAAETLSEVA

[2] = molecular target: T2, human PSMA; test: SPR
[3] = molecular target: T1, cynomolgus monkey PSMA; test: SPR
[4] = molecular target: T2, human PSMA; test: FACS; Rat1(e) hPSMA cells, lot RC6647
[5] = molecular target: T1, cynomolgus monkey PSMA; test: FACS; CHO-cyno PSMA cells
[6] = molecular target: T2, human PSMA; test: ELISA
[7] = molecular target: T1, cynomolgus monkey PSMA; test: ELISA
[8] = molecular target: T2, human PSMA; test: FACS; Rat1(e) hPSMA cells, lot RC6589

| Kd [1] | Kd [2] | Kd [3] | Kd [4] | Kd [5] | Kd [6] | Kd [7] | Kd [8] | Binder |
| --- | --- | --- | --- | --- | --- | --- | --- | --- |
| 0.709 nM | 59 nM | 47 nM | 0.761 nM | 0.431 nM | 0.138 nM | 0.104 nM | – | cHv75-2a11.G1(L328C)k (antibody, V domains shown) VH: QVQLVESGGGVVQPGRSLRLSCAASGFTFSSYDMHWVRQAPGKGLEWVAVIWYDGSNKYYADSLKGRFTISRDNSKNTLYLQMNSLRAEDTAVYYCARVIAARTFYYYGMDVWGQGTTVTVSS VL: not shown |
| 0.094 nM | 11 nM | 36 nM | – | 0.166 nM | 0.074 nM | 0.063 nM | 0.205 nM | cHv75-2a7.G1(C99Y;L328C)k (antibody, V domains shown) VH: EVQLVESGGGLVQPGGSLRLSCAASGITFSNYWMSWVRQAPGKGLEWVANIKKDGSEKFYVDSVKGRFTISRDNAKNSLYLQINSLRAEDTAMYYCAREIQLYLQHWGQGTLVTVSS VL: DIQMTQSPSSVSASVGGRVTITCRASQGISNWLAWYQQKPGKAPKLLIYAASSLQSGVPSRFSGSGSGTDFTLTISNLQPEDFASYYCQQANSFPLTFGGGTKVEIKR |
